Columns and labels:
[1] = target: human IgE (SUS-11 IgE) (human) (UniProt P01854); experiment: SPR (BIAcore), IgE amine-coupled to CM5 chip, monophasic model
[2] = target: human IgE (SUS-11 IgE) (human) (UniProt P01854); experiment: competition ELISA: SUS-11 IgE (1 µg/ml) pre-incubated with the antibody, captured on anti-IgE Le27; blocked ligand is HRP-labeled FcεRIα-HSA-FcεRIα (DFP); binding without competitor = 100 %

Chain of UniProt P01854 (P01854 other isoform, or with tags, fused parts or gaps): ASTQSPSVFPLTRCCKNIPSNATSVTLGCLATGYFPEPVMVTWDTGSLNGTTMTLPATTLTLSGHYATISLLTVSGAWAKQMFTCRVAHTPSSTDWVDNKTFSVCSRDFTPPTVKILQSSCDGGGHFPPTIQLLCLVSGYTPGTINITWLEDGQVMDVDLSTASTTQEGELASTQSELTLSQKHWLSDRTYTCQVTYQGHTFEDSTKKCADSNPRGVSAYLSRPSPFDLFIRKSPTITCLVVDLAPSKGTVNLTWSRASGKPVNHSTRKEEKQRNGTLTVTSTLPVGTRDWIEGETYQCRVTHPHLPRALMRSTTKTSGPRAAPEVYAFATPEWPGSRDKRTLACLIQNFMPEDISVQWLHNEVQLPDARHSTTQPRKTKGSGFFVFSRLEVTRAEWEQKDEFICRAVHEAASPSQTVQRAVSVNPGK

Kd [1]: 0.53 nM
koff [1]: 4.2e-06 s⁻¹
kon [1]: 8000 M⁻¹ s⁻¹
IC50 (read off the curve) [2]: 0.4 µg/mL
Substance: BSW17, mouse monoclonal anti-human IgE antibody (hybridoma ECACC 96121916)

From patent US7041288
